Consider one molecule from article PMC3556581 (Nature structural & molecular biology, 2009).

Assay [1] addresses parental cyclophilin A (CypA) (rhesus macaque; identical in sequence …, UniProt P62940 1-165). Kind of assay: ITC.
In assay [2] the target is CypA domain of rhesus macaque TRIMCyp (RhTC CypA) (rhesus macaque, UniProt P62940 1-165, D66N | R69H). Kind of assay: ITC.

B1: HIV-2 N-terminal capsid (CA^N) domain (domain or fragment)
chain: not shown
Usually Kd stands for a measure of binding affinity in units of concentration. B1: the Kd in assay [1] turned out to be 91 µM. In assay [2], this molecule returned a Kd of 3 µM and a dH of -1.16 kcal/mol.
